According to patent publication US20250154283A1 (published 2025):

B1: 1405_Lib8_scFv (scFv, not shown: small tags and cut ends)
scFv: EVQLVESGGGLVQPGRSLRLSCAASGVDFSTYAMHWVRQAPGKGLEWVSAISSSGAYTDYADSVEGRFTISRDNAKNSLYLQMNSLRAEDTAVYYCATDRGPFSGYGTQGWFDPWGQGTLVTVSSSGGSTITSYNVYYTKLSSSGTDIQMTQSPSSLSASVGDRVTITCRASRDITSYLAWYQQKPGKAPKLLIYHASTLEAGVPSRFSGSGSGTDFTLTISSLQPEDVATYYCQQYGDFPPTFGGGTKVEIK
B2: Lib4_P2_H3_scFv (scFv, not shown: small tags and cut ends)
scFv: QVQLQESGPGLVKPSQTLSLTCTVSGSTFGDYAWSWIRQPPGKGLEWIGYINHIGNADYNPSLKSRVTMSVDTSKNQFSLKVNSVTAADTAVYYCARDGVESPEVPNYYYYGMDVWGQGTTVTVSSSGGSTITSYNVYYTKLSSSGTEIVMTQSPATLSLSPGERATLSCRASHSIGSNLAWYQQKPGQAPRLLIYDATNRAPGIPARFSGSGSGTDFTLTISSLEPEDFAVYYCQQSYTNPTFGGGTKVEIK
B3: 8226_Lib8_scFv (scFv, not shown: small tags and cut ends)
scFv: EVQLVESGGGLVQPGRSLRLSCAASGFNFHNYDMHWVRQAPGKGLEWVSAISGGAVSTDYADSVEGRFTISRDNAKNSLYLQMNSLRAEDTAVYYCARSSWYGGQIDFWGQGTLVTVSSSGGSTITSYNVYYTKLSSSGTDIQMTQSPSSLSASVGDRVTITCRASQDISGWLAWYQQKPGKAPKLLIYAASSLQDGVPSRFSGSGSGTDFTLTISSLQPEDVATYYCQQSYRIPSTFGGGTKVEIK
B4: 1081_Lib8_scFv (scFv, not shown: small tags and cut ends)
scFv: EVQLVESGGGLVQPGRSLRLSCAASGFNFHNYDMHWVRQAPGKGLEWVSAISGGAVSTDYADSVEGRFTISRDNAKNSLYLQMNSLRAEDTAVYYCARSSWYGGQIDFWGQGTLVTVSSSGGSTITSYNVYYTKLSSSGTDIQMTQSPSSLSASVGDRVTITCRASESVSSWLAWYQQKPGKAPKLLIYGASTLEGGVPSRFSGSGSGTDFTLTISSLQPEDVATYYCQQAYRTPVTFGGGTKVEIK
B5: Lib8_P4_C10_scFv (scFv, not shown: small tags and cut ends)
scFv: EVQLVESGGGLVQPGRSLRLSCAASGFNFHNYDMHWVRQAPGKGLEWVSAISGSSDTMDYADSVEGRFTISRDNAKNSLYLQMNSLRAEDTAVYYCVRASWYGTFFDYWGQGTLVTVSSSGGSTITSYNVYYTKLSSSGTDIQMTQSPSSLSASVGDRVTITCRASQDISGWLAWYQQKPGKAPKLLIYAASSLQDGVPSRFSGSGSGTDFTLTISSLQPEDVATYYCQQSYRIPSTFGGGTKVEIK
B6: Lib4_P2_A5_scFv (scFv, not shown: small tags and cut ends)
scFv: QVQLQESGPGLVKPSQTLSLTCTVSGSSISSSSDYWSWIRQPPGKGLEWIGYIDISGDADYNPSLKSRVTMSVDTSKNQFSLKVNSVTAADTAVYYCARHLSSGWYGTYYFDYWGQGTLVTVSSSGGSTITSYNVYYTKLSSSGTEIVMTQSPATLSLSPGERATLSCRASQNIHSNLAWYQQKPGQAPRLLIYDASSRATGIPARFSGSGSGTDFTLTISSLEPEDFAVYYCQQGYTKPLTFGGGTKVEIK
B7: Lib1_P1_D1_scFv (scFv, not shown: small tags and cut ends)
scFv: QVQLVQSGAEVKKPGASVKVSCKVSGDTFTDRYIHWVRQAPGKGLEWMGGINTIFGTAIYAQKFQGRVTMTEDTSTDTAYMELSSLKSEDTAVYYCAREGATVSTNFDYWGQGTLVTVSSSGGSTITSYNVYYTKLSSSGTDIQMTQSPSSVSASVGDRVTITCRASQDIRKSLAWYQQKPGKAPKLLIYDISNRPSGVPSRFSGSGSGTDFTLTISSLQPEDFANYYCQQGYSAPYGFGGGTKVEIK
B8: Lib1_P1_C6_scFv (scFv, not shown: small tags and cut ends)
scFv: QVQLVQSGAEVKKPGASVKVSCKVSGYTFASHYIHWVRQAPGKGLEWMGGMDPATGQTIYAQKFQGRVTMTEDTSTDTAYMELSSLKSEDTAVYYCAKGDRSSWYEVLSFQHWGQGTLVTVSSSGGSTITSYNVYYTKLSSSGTDIQMTQSPSSVSASVGDRVTITCRASQGISTDLAWYQQKPGKAPKLLIYDASILQRGVPSRFSGSGSGTDFTLTISSLQPEDFANYYCQQVRTYPFTFGGGTKVEIK
B9: 4142_Lib1_scFv (scFv, not shown: small tags and cut ends)
scFv: QVQLVQSGAEVKKPGASVKVSCKVSGYPFTSSGIHWVRQAPGKGLEWMGGVIPLFGTANYAQKFQGRVTMTEDTSTDTAYMELSSLKSEDTAVYYCARIRVSSGWYRDYGMDVWGQGTTVTVSSSGGSTITSYNVYYTKLSSSGTDIQMTQSPSSVSASVGDRVTITCRASQDITNDLAWYQQKPGKAPKLLIYDASRLQSGVPSRFSGSGSGTDFTLTISSLQPEDFANYYCQQTFTTPLTFGGGTKVEIK
B10: 4029_Lib1_scFv (scFv, not shown: small tags and cut ends)
scFv: QVQLVQSGAEVKKPGASVKVSCKVSGYPFTSSGIHWVRQAPGKGLEWMGGVIPLFGTANYAQKFQGRVTMTEDTSTDTAYMELSSLKSEDTAVYYCARIRVSSGWYRDYGMDVWGQGTTVTVSSSGGSTITSYNVYYTKLSSSGTDIQMTQSPSSVSASVGDRVTITCRASQSIGDFLAWYQQKPGKAPKLLIYDASHLQTGVPSRFSGSGSGTDFTLTISSLQPEDFANYYCQQTSTIPPTFGGGTKVEIK
B11: Lib1_P1_E9_scFv (scFv, not shown: small tags and cut ends)
scFv: QVQLVQSGAEVKKPGASVKVSCKVSGYTFTSHIIHWVRQAPGKGLEWMGGMNPYSNKAIYAQKFQGRVTMTEDTSTDTAYMELSSLKSEDTAVYYCARDASDYGDYGYYYYYMDVWGKGTTVTVSSSGGSTITSYNVYYTKLSSSGTDIQMTQSPSSVSASVGDRVTITCRASQYIGNDLAWYQQKPGKAPKLLIYEASQRPSGVPSRFSGSGSGTDFTLTISSLQPEDFANYYCQQQYNYPLTFGGGTKVEIK
B12: 4166_Lib4_scFv (scFv, not shown: small tags and cut ends)
scFv: QVQLQESGPGLVKPSQTLSLTCTVSGESFSGHFWSWIRQPPGKGLEWIGYISQSGRTDYNPSLKSRVTMSVDTSKNQFSLKVNSVTAADTAVYYCARTLPRIQLWSPRGAFDIWGQGTMVTVSSSGGSTITSYNVYYTKLSSSGTEIVMTQSPATLSLSPGERATLSCRASQSLGRSLAWYQQKPGQAPRLLIYDASHRATGIPARFSGSGSGTDFTLTISSLEPEDFAVYYCQQYVSYPLTFGGGTKVEIK
B13: Lib4_P2_B4_scFv (scFv, not shown: small tags and cut ends)
scFv: QVQLQESGPGLVKPSQTLSLTCTVSGASLGDQYWSWIRQPPGKGLEWIGYIHPSGDFDYNPSLKSRVTMSVDTSKNQFSLKVNSVTAADTAVYYCARHYSSSWYGTWYFDLWGRGTLVTVSSSGGSTITSYNVYYTKLSSSGTEIVMTQSPATLSLSPGERATLSCRASQNIGTNLAWYQQKPGQAPRLLIYDASVRAAGIPARFSGSGSGTDFTLTISSLEPEDFAVYYCQQSLTTPLTFGGGTKVEIK
B14: 3964_Lib4_scFv (scFv, not shown: small tags and cut ends)
scFv: QVQLQESGPGLVKPSQTLSLTCTVSGASISTHSWSWIRQPPGKGLEWIGYINPSGDIDYNPSLKSRVTMSVDTSKNQFSLKVNSVTAADTAVYYCARGRTGFDSSGFVVGAFDIWGQGTMVTVSSSGGSTITSYNVYYTKLSSSGTEIVMTQSPATLSLSPGERATLSCRASQNVNDNLAWYQQKPGQAPRLLIYDASTRPTGIPARFSGSGSGTDFTLTISSLEPEDFAVYYCQQYLTIPRTFGGGTKVEIK
B15: 3552_Lib8_scFv (scFv, not shown: small tags and cut ends)
scFv: EVQLVESGGGLVQPGRSLRLSCAASEFTFGDYDMHWVRQAPGKGLEWVSAISSSGSNRDYADSVEGRFTISRDNAKNSLYLQMNSLRAEDTAVYYCARDAWFGDAFDIWGQGTMVTVSSSGGSTITSYNVYYTKLSSSGTDIQMTQSPSSLSASVGDRVTITCRASESVSSWLAWYQQKPGKAPKLLIYGASTLEGGVPSRFSGSGSGTDFTLTISSLQPEDVATYYCQQSYSFPDFGGGTKVEIK
B16: 2738_Lib1_scFv (scFv, not shown: small tags and cut ends)
scFv: QVQLVQSGAEVKKPGASVKVSCKVSGYTLTDLPIHWVRQAPGKGLEWMGGINPFLGTTIYAQKFQGRVTMTEDTSTDTAYMELSSLKSEDTAVYYCARGVDMLATARDYYYMAIWGKGTTVTVSSSGGSTITSYNVYYTKLSSSGTDIQMTQSPSSVSASVGDRVTITCRASQSIGNDLAWYQQKPGKAPKLLIYGASMRATGVPSRFSGSGSGTDFTLTISSLQPEDFANYYCQQYASDPLTFGGGTKVEIK
B17: Lib4_P2_A1_scFv (scFv, not shown: small tags and cut ends)
scFv: QVQLQESGPGLVKPSQTLSLTCTVSGASFGDNYWSWIRQPPGKGLEWIGYIDTSGSSDYNPSLKSRVTMSVDTSKNQFSLKVNSVTAADTAVYYCARVSWGYYAMDVWGQGTTVTVSSSGGSTITSYNVYYTKLSSSGTEIVMTQSPATLSLSPGERATLSCRASQGISGRLAWYQQKPGQAPRLLIYDVSTRATGIPARFSGSGSGTDFTLTISSLEPEDFAVYYCQQYDTSAPLTFGGGTKVEIK
B18: 189_Lib4_scFv (scFv, not shown: small tags and cut ends)
scFv: QVQLQESGPGLVKPSQTLSLTCTVSGVTFSSYGWSWIRQPPGKGLEWIGYVDTSGSTDYNPSLKSRVTMSVDTSKNQFSLKVNSVTAADTAVYYCARTTYYYDSSGFARGWFDPWGQGTLVTVSSSGGSTITSYNVYYTKLSSSGTEIVMTQSPATLSLSPGERATLSCRASQSVPSSHLAWYQQKPGQAPRLLIYDATNRAAGIPARFSGSGSGTDFTLTISSLEPEDFAVYYCQQYDNWPSPSFGGGTKVEIK
B19: Lib1_P1_A1_scFv (scFv, not shown: small tags and cut ends)
scFv: QVQLVQSGAEVKKPGASVKVSCKVSGDTLSNYAIHWVRQAPGKGLEWMGGINPNAGTTIYAQKFQGRVTMTEDTSTDTAYMELSSLKSEDTAVYYCARDSSSWSQFGYYYYYMDVWGKGTTVTVSSSGGSTITSYNVYYTKLSSSGTDIQMTQSPSSVSASVGDRVTITCRASQSIGDFLAWYQQKPGKAPKLLIYDASHLQTGVPSRFSGSGSGTDFTLTISSLQPEDFANYYCQQTSTIPPTFGGGTKVEIK
B20: Lib6_P3_B9_scFv (scFv, not shown: small tags and cut ends)
scFv: EVQLVQSGAEVKKPGASVKVSCKASGDTFSSHVISWVRQAPGQGLEWMGGINPRTGTTIYAQKLQGRGTMTTDPSTSTAYMELRSLRSDDTAVYYCARTRPWAGLDVWGQGTTVTVSSSGGSTITSYNVYYTKLSSSGTESALTQPASVSGSPGQSITISCTGTNIEYKGVSWYQQHPGKAPKLMIYGVDKRPSGVSNRFSGSKSGNTASLTISGLQAEDEADYYCQAWGTSTAIFGGGTKLTVL

Molecular target: T1, biotinylated human VWF cysteine knot (CK) domain construct (human, biotin on the in vitro biotinylation tag (residue not stated); one N-glycan)
T1 construct: Disulfide-linked homodimer; also called biotinylated human VWF CK domain; human VWF CK domain construct
T1 chain: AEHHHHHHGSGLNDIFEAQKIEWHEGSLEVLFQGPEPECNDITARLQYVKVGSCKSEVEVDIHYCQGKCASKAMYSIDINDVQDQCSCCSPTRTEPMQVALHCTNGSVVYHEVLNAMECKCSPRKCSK
Assay: SPR, scFv captured on anti-SV5, pH 7.4
Excerpt: Briefly, a sensor chip was activated and coupled with an anti-SV5 mouse monoclonal antibody using amine coupling. The soluble scFvs in crude yeast supernatants were printed on the anti-SV5 lawn. […] From the measured association (kₒₙ) and dissociation (koff) rate constants, an apparent equilibrium dissociation constant (Kd=koff/kₒₙ) was estimated. Due to the dimeric state of the CK construct and consequent possibility for simultaneous binding of captured scFv to both monomers in the CK dimer, the SPR setup was expected to overestimate the binding affinity.

Binder	binding result
B1	binds
B2	binds
B3	binds
B4	binds
B5	binds
B6	binds
B7	binds
B8	binds
B9	binds
B10	binds
B11	binds
B12	binds
B13	binds
B14	binds
B15	binds
B16	binds
B17	binds
B18	binds
B19	binds
B20	binds
